This is an account of results in patent US20230122364A1 (VANDERBILT UNIVERSITY, published 2023).

The target of test [1] is T1, prefusion conformation-stabilized SARS-CoV-2 spike ectodomain (S2Pecto) protein (SARS-CoV-2, UniProt P0DTC2 14-1213; P10104 458-484). As to the kind of experiment: ELISA on coated S2Pecto.
The target of test [2] is T1, prefusion conformation-stabilized …. As to the kind of experiment: competition ELISA on coated S2Pecto; hACE2-FLAG binding inhibited. For orientation: An ELISA detects its analyte on a solid surface through an enzyme-linked reagent.
Test [3] has the same target. As to the kind of experiment: ELISA, purified IgG.

B1: COV2-2103 (antibody, V domains shown)
VH: EVQLVESGGGLVQPGGSLRLSCAASGFTFSRHWMTWVRQAPGKGLEWVANIKQDGSEKYYVDSVKGRLTISRDNAKNSLYLQMNSLRAEDTAVYYCARLGFYYGGADYWGQGTLVTVSS
VL: NFMLTQPHSVSESPGKTVTISCTGSSGSIASNYVQWYQQRPGSAPTTVISEDNQRPSGVPDRFSGSIDSSSNSASLTISGLKTEDEADYYCQSYDGINRAWVFGGGTKLTVL
One may read the EC50 as the midpoint of the concentration-response curve. Higher therefore signals a less potent agent. As usually defined, the IC50 is the concentration needed to halve the response being measured. B1 came in with an EC50 in test [1] of 2.9 ng/mL. Also, the half-maximal inhibitory concentration (IC50) in test [2] turned out to be 0.079 µg/mL. Besides, the “OD 450 nm” value in test [3] was determined as 4.3 OD 450 nm.

B2: COV2-2046 (antibody, V domains shown)
VH: EVQLVESGGGLVQPGRSLRLSCAASGFTFDDYAMHWVRQAPGKGLEWVSGISWNSGSIAYTDSVKGRFTISRDNAKNSLYLQMNSLRAEDTALYYCAKAHSTGHQYYYGMDVWGQGTTVTVSS
VL: DIQMTQSPSSLSASVGDRVTITCRASQSISSFLNWYQQKPGKAPKLLIYAAFNLQSGVPSRFSGSGSGTDFTLTISSLQSEDFATYYCQQSYNTPYTFGQGTKLEIK
On to B2, for which, in test [3], the “OD 450 nm” value is 4.3 OD 450 nm.

B3: COV2-2068 (antibody, V domains shown)
VH: EVQLVESGGGLVQPGGSLRLSCAASGFTVSSNYMSWVRQAPGKGLEWVSVIYPGGSAFYADSVKGRFTISRHNSNNTLCLQMNSLRTEDTAVYYCARSYDILTGYRDAFDIWGQGTMVTVSS
VL: QSVLTQPPSVSGAPGQRVTISCTGSSSNIGSGSDVHWYQQLPGTAPKLLIYGNTNRPSGVPDRFSGSKSGTSASLAITGLQAEDEADYYCQSYDSRLSGFVVFGGGTKLTVL
In turn, B3 had a concentration giving a half-maximal response (EC50) in test [1] of 7.4 ng/mL. In test [2], this molecule yielded a half-inhibitory concentration (IC50) of 0.166 µg/mL. For the same molecule, in test [3], the “OD 450 nm” value amounted to 4.3 OD 450 nm.

B4: COV2-2113 (antibody, V domains shown)
VH: EVQLVESGGGLIQPGGSLRLSCAASEVTVSSNYMSWVRQAPGKGLEWVSLIYSGGTTYYADSVKGRFTISRDNSKNTLYLQMNSLRAEDTAVYYCARDFLRWHDLWGQGTLVTVSS
VL: DIQMTQSPSSLSASVGDRVTITCQASQDINNYLNWYQQKPGKAPKLLIYDASNLETGVPLRFSGSGSGTDFIFTISSLQPEDIATYYCQQYDNLPPVFGGGTKVEIK
With B4, it took 1.8 ng/mL to reach a half-maximal effect in test [1] (EC50). Also, the 50% inhibitory concentration (IC50) in test [2] was determined as 0.06 µg/mL. Further, in test [3], the “OD 450 nm” value was 4.4 OD 450 nm.

B5: COV2-2132 (antibody, V domains shown)
VH: EVQLVESGGGLIQPGGSLRLSCAASEVTVSSNYMSWVRQAPGKGLEWVSLIYSGGTTYYADSVKGRFTISRDNSKNTLYLQMNSLRAEDTAVYYCARDFLRWHDLWGQGTLVTVSS
VL: DIQMTQSPSSLSASVGDRVTITCQASQDINNYLNWYQQKPGKAPKLLIYDASNLETGVPLRFSGSGSGTDFTFTISSLQPEDIATYYCQQYDNLPPVFGGGTKVEIK
For B5, in test [3], the “OD 450 nm” value was 4.4 OD 450 nm.

B6: COV2-2082 (antibody, V domains shown)
VH: EVQLVESGGGVVRPGGSLRLSCAASGFIFDDYDMTWVRQAPGKGLEWVSGISWNGGNTGYADSVKGRFTISRDNAKNSLYLQMNSLRAEDTALYHCAVIMSPIPRYSGYDWAGGAFDIWGQGTMVTVSS
VL: SSELTQDPAVSVALGQTVRITCQGDSLRSYYASWYQQKPGQVPILVIYDKNNRPSGIPDRFSGSSSGNTASLTITGAQAEDEADYYCNSRDSSGNAVVFGGGTKLTVL
The molecule B6 had a 50% effective concentration (EC50) in test [1] of 1.1 ng/mL. In test [2], this molecule had an IC50 of 0.043 µg/mL. Also, the “OD 450 nm” value in test [3] came to 4.3 OD 450 nm.

B7: COV2-2098 (antibody, V domains shown)
VH: EVQLLESGGGLIQPGGSLRLSCAASGFTFSNYAMSWVRQAPGKGLEWVSGIISTSGGATYNADSVRGRFTTSRDNSKNILYLQMNSLRGEDTAVYYCVKGLFDWFPLWGQGTMVTVSS
VL: DIVMTQSPATLSVSPGERAILSCRASQSVRSNLAWYQQKPGQAPRLLISGASTRATAIPARFSGSGSGTEFTLTITSLQSEDCAVYYCHQYNNWPQTFGQGTKVEIK
In the case of B7, in test [1], it took 1.3 ng/mL to reach a half-maximal effect (EC50). In addition, in test [2], the IC50 stood at 0.048 µg/mL. Besides, the “OD 450 nm” value in test [3] was 4.3 OD 450 nm.

B8: COV2-2961 (antibody, V domains shown)
VH: EVQLVQSGPEVKKPGTSVKVSCKASGFTFMSSAVQWVRQARGQRLEWIGWIVIGSGNTNYAQKFQERVTITRDMSTSTAYMELSSLRSEDTAVYYCAAPYCSSISCNDGFDIWGQGTMVTVSS
VL: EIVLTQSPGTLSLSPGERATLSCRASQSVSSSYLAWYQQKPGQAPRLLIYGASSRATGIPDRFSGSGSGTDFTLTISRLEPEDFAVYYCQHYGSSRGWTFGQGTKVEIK
Regarding B8, the “OD 450 nm” value in test [3] worked out at 3.6 OD 450 nm.

B9: COV2-2050 (antibody, V domains shown)
VH: QVQLVQSGAEVKKPGASVKVSCKASGYTFTDYYMHWVRQAPGQGLEWMGWINPNSRGTNYAQKFQGRVTMTRDTSISTVYMELSRLTSDDTAVYYCARVVVLGYGRPNNYYDGRNVWDYWGQGTLVTVSS
VL: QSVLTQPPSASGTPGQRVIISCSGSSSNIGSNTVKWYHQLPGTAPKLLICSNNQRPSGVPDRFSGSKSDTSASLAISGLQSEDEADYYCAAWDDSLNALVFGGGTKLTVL
Regarding B9, the response in test [1] was half-maximal at 1.7 ng/mL (EC50). In test [2], this molecule displayed a 50% inhibitory concentration (IC50) of 0.063 µg/mL. Besides, the “OD 450 nm” value in test [3] is 4.3 OD 450 nm.
